The target in data set [1] is subtilisin (Bacillus licheniformis, UniProt P00780). Put plainly: Protease digestion with subtilisin. The data set is classed as physicochemical. Particulars: pH 5.80. How it is done:
(§1) Nisin is comparatively resistant to proteolysis by trypsin under the optimized conditions described above. To determine whether nisin is also resistant to other proteolytic enzymes under similar conditions, partially purified nisin was exposed to pepsin, thrombin, V8 protease (Endo Gluc), subtilisin, papain, thermolysin, or clostripain at pH 5.80. Pepsin exposure was also performed at pH 3.50. […] Pepsin at pH 5.80 and thrombin appeared ineffective against the impurities as well.
(§2) Digestion experiments using pepsin (EC3.4.23.1), thrombin (EC3.4.21.5), V8 protease (EC3.4.21.19), subtilisin (EC3.4.21.62), papain (EC3.4.22.2), thermolysin (EC3.4.24.27), and clostripain (EC3.4.22.8) were performed essentially as described for trypsin and at pH 5.80. Pepsin digestion was also performed at pH 3.50. For trypsin digestions using trypsin linked to a solid matrix (e.g. insoluble trypsin), 1.6 liters of partially purified nisin was prepared at 9.5 mg/ml in 10 mM Tris HCl and pH 5.50. Following the addition of 1.6 ml of TPCK-treated trypsin bound to beaded agarose (Sigma Chemical Company), the reaction mixture was incubated at 30° C. for 6 hours with frequent agitation. Insoluble trypsin was removed by centrifugation at approximately 4000×g for 7 minutes. The resultant supernatant containing nisin was prepared for HPLC analysis.

Data set [2] relates to pepsin. Put plainly: Protease digestion with pepsin. It is filed as physicochemical. How it is done:
as §1, §2

Data set [3] addresses T1, TPCK treated insoluble trypsin (Bos taurus, UniProt P00760).
T1 construct: purchased Sigma Chemical Company
T1 sequence (P00760 24-246): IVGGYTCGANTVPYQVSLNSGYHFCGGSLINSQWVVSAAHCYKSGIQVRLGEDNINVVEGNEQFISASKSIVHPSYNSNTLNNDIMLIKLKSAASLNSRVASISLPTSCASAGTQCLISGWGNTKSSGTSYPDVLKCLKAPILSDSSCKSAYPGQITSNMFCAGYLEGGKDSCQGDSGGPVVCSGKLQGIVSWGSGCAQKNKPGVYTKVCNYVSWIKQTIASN
Put plainly: Insoluble trypsin (bound to beaded agarose) digestion, HPLC. Conditions: 9.55 mg/ml, 1.6 ml insoluble trypsin on agarose, 6 hr, 30° C., trypsin removed by centrifugation. The data set is classed as physicochemical. How it is done:
To determine whether insoluble trypsin treatment of nisin preparations was also effective in digestion of impurities, but not nisin itself, 1.6 liters of partially purified nisin prepared at 9.55 mg/ml was treated with 1.6 ml of TPCK treated insoluble trypsin bound to beaded agarose. After 6 hr of incubation at 30° C., and following removal of insoluble trypsin by centrifugation, the overall nisin recovery was about 90%.
as §2

The target of data set [4] is V8 protease (Endo Gluc) (Staphylococcus aureus, UniProt P0C1U8). Put plainly: Protease digestion with V8 protease. It is filed as physicochemical. Conditions: pH 5.80. The protocol:
as §1, §2

Data set [5] addresses thermolysin (Bacillus thermoproteolyticus, UniProt P00800). Put plainly: Protease digestion with thermolysin. The data set is classed as physicochemical. Particulars: pH 5.80. How it is done: as §1, §2
Data set [6] has as its system trypsin. Put plainly: Soluble trypsin digestion at low pH and low trypsin to nisin ratio, HPLC. The data set is classed as physicochemical. Particulars: below pH 5.50, nisin 11 mg/ml, trypsin 27.5 μg/ml (400:1 w/w), overnight, room temperature. How it is done:
Peptide analysis has identified over 40 peptides that co-purify with nisin. All of these peptides have been identified as being products of Lactococcus fermentation. Since it was determined that nisin, at neutral to slightly alkaline pH and high trypsin to nisin ratios, is subject to proteolysis by trypsin, conditions were altered in an attempt to identify conditions under which trypsin would not degrade nisin but would degrade the peptide impurities in the nisin sample. Reaction mixtures containing nisin preparations, at a concentration of 11 mg/ml, and USP grade trypsin at a concentration of 27.5 μg/ml, were incubated overnight at room temperature (400:1 w/w). The pH of the mixtures ranged from 5.25 to 6.5.
To further optimize the conditions for removal of peptide impurities from nisin preparations by tryptic digestion, two liters of partially purified nisin was prepared at 4.55 mg/ml and incubated with 25 mg of USP grade trypsin for 16 hrs at 30° C. in 10 mM citric acid, pH 5.80. […] Moreover, subsequent removal of trypsin using a molecular weight cut off membrane yielded a recovery of 87.5% nisin and 0.38% trypsin.
For treatment of nisin with soluble trypsin, 2 liters of partially purified nisin from a fermentation product was prepared at 4.55 mg/ml in 10 mM citric acid buffer and 5 mM CaCl2. […] Nisin recovery and purity was determined by SDS-PAGE and HPLC. […]

Data set [7] addresses thrombin (Homo sapiens, UniProt P00734). Put plainly: Protease digestion with thrombin. The data set is classed as physicochemical. Conditions: pH 5.80. How it is done:
as §1, §2

In data set [8] the target is T2, papain (Carica papaya, UniProt P00784).
T2 sequence (P00784 134-345): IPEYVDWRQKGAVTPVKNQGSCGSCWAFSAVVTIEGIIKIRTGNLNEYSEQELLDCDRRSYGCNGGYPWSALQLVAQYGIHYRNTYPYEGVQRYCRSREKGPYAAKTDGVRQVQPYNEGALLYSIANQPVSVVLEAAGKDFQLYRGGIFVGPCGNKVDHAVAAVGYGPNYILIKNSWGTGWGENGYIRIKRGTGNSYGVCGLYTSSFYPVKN
Put plainly: Protease digestion with papain. The data set is classed as physicochemical. Conditions: pH 5.80. The protocol:
as §1, §2

Data set [9] concerns the target T3, clostripain (Hathewaya histolytica, UniProt P09870).
T3 sequence (P09870 whole entry, looked up): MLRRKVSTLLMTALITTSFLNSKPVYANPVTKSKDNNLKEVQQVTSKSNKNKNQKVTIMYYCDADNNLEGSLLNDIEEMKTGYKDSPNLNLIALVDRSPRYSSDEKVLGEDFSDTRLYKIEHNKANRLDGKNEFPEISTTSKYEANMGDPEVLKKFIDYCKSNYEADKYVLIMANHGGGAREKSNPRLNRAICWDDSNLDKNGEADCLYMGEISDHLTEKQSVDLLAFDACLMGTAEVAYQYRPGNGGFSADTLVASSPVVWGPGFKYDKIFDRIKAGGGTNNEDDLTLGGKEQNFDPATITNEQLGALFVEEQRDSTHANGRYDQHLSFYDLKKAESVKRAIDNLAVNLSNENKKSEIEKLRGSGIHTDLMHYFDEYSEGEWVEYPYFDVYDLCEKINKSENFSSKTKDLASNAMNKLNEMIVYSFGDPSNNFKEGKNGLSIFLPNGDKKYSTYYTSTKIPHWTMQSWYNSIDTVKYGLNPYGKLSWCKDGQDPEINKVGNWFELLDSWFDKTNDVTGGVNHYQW
Put plainly: Protease digestion with clostripain. It is filed as physicochemical. Conditions: pH 5.80. The protocol:
as §1, §2

Data set [10] deals with trypsin. Put plainly: Tryptic digestion of nisin at pH 7.0, SDS-PAGE and HPLC. It is filed as physicochemical. Conditions: pH 7.0, nisin to trypsin about 10:1 (w/w), 30° C., after 96 hr. How it is done:
Nisin has two internal lysine residues that are potential targets of the proteolytic enzyme trypsin. To determine whether nisin could be digested by trypsin, a digestion reaction mixture was prepared where a nisin preparation, partially purified nisin from a fermentor run, was exposed to trypsin under conditions optimal for trypsin activity. These conditions included a reaction pH of 7.0 and a nisin to trypsin ratio of about 10:1 (w/w). Samples were incubated at 30° C. and aliqoutes were removed for analysis every 24 hr, beginning at time zero. […] After 96 hr of treatment, more than 90% of nisin was degraded.
Tryptic digestion of nisin (50 mg) was carried out in 50 ml of a buffer consisting of 25mM sodium acetate, 6 mM Tris acetate, 5 mM CaCl2, and pH 7.0. One ml of USP grade trypsin (5mg/ml) was added followed by incubation at 30° C. Thereafter, 500 μl aliqouts of trypsin were added at times 24, 48, 72, and 96 hours. At each time point in the experiment, 2 ml aliquots were removed for further analysis, of which […] was immediately plated on blood agar plates for determination of contamination. The remaining 1.8 ml was stored at −20° C. until the end of experiment for SDS-PAGE and HPLC analysis.

For data set [11], the system named is non-mastitic cows. Put plainly: Mammary infusion, somatic cell count of quarter milk. The data set is classed as in vivo. The protocol:
Bovine intra-mammary infusion of impure nisin stimulates the production of high levels of somatic cells in milk as part of an inflammatory reaction.
Non-mastitic cows were treated with an infusion of vehicle, untreated, and trypsin-treated nisin (30 mg/10 ml) in the quarter after the 4th, 5th, and 6th milkings. The somatic cell count of the milk was recorded before, during, and after milking. High somatic cell counts were indicative of an inflammatory reaction. Statistical analysis was carried out using two sided t-Test comparisons with unequal variance.

For data set [12], the system named is mastitic isolate of Streptococcus agalactiae (strain #20). Put plainly: Antibacterial 96 well plate assay. Particulars: bacterial growth read as absorbance. It is filed as cell-based. How it is done:
To confirm that the biological activity of nisin is also unaltered, in vitro bactericidal activity assay was performed. Trypsin-treated nisin was analyzed for antibacterial activity against a mastitic isolate of Streptococcus agalactiae (strain #20) in a 96 well plate assay and bacterial growth was read as absorbance readings on an ELISA reader.
Nisin activity was determined using an antibacterial assay against a mastitic isolate of Streptococcus agalactiae (IC 20) in a 96 well plate assay. Test samples were serially diluted into M17 10% lactose medium and then mixed with an equal volume of 10^4 cfu/ml. After 66 hr of incubation at room temperature, the plates were read on an ELISA reader at 450 nm. Wells containing bacterial growth gave high absorbance readings. The data was analyzed using a four-parameter curve-fitting software.

Where no end group is shown, it is not given here.

Sequence of V8 protease (Endo Gluc) (P0C1U8 69-336): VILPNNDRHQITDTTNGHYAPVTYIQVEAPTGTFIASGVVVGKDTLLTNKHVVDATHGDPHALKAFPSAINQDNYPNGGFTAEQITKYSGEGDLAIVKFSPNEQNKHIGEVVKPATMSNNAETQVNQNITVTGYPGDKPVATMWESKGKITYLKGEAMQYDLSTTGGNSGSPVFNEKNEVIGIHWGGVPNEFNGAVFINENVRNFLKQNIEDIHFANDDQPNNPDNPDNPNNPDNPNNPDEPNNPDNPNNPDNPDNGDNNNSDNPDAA
Sequence of subtilisin (P00780 106-379): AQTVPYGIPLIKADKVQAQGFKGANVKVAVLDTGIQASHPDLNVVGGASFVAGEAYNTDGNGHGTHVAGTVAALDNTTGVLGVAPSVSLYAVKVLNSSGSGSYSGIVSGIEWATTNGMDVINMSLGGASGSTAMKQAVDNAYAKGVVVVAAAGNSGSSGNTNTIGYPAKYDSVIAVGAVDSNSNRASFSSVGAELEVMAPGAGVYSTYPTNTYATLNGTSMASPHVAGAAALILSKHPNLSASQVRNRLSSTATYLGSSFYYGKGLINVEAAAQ
Sequence of thermolysin (P00800 233-548): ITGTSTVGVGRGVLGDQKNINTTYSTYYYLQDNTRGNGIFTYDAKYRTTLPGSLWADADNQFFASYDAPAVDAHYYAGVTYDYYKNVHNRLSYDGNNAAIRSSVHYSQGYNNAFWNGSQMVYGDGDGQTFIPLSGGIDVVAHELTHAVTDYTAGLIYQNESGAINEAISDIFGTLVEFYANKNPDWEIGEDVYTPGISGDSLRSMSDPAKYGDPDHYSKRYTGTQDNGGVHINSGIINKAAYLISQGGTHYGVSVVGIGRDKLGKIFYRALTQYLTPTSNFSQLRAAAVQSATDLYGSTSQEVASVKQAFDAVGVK

Regarding “nisin (ITSISLCTPGCKTGALMGCNMKTATCHCSIHVSK; cysteine pairing not given here; also: lantibiotic nisin-A, modified residues not placed; UniProt P13068 24-57, looked up) [lysine-rich lantibiotic, polypeptide antimicrobial agent with lanthionine and β-methyl-lanthionine residues, used as food preservative]”, the “proteolytic digestion of nisin by subtilisin” value in data set [1] was “resistant”. In addition, the “proteolytic digestion of nisin by pepsin” value in data set [2] (pH 3.50) was “did not digest nisin”; in data set [2] (pH 5.80) it was “resistant”. Moreover, the “overall nisin recovery after insoluble trypsin incubation” value in data set [3] is recorded as “about 90%”. Also, in [4], the “proteolytic digestion of nisin by V8 protease” value is “resistant”. Besides, the “proteolytic digestion of nisin by thermolysin” value in data set [5] is “resistant”. Besides, in data set [6], the “hydrolysis of nisin by trypsin” value is recorded as “minimal hydrolysis”. Also, the “proteolytic digestion of nisin by thrombin” value in data set [7] is “resistant”. Further, the “proteolytic digestion of nisin by papain” value in data set [8] was “resistant”. In data set [9], the “proteolytic digestion of nisin by clostripain” value was “resistant”. The “nisin degraded by trypsin” value in [10] is “more than 90%”.
For the substance “trypsin/nisin: nisin preparation purified by selective trypsin digestion of peptide impurities (ITSISLCTPGCKTGALMGCNMKTATCHCSIHVSK; also: lantibiotic nisin-A: lanthionine thioether rings, Dha/Dhb, positions not given here; UniProt P13068 24-57, looked up)”, in [11] (intra-mammary infusion of 30 mg, non-mastitic cows), the “somatic cell count of milk from treated quarters (inflammatory reaction), summary in words” value is “much lower and is not statistically different from quarters treated with buffer alone”. The “Somatic Cell Count of Quarter Milk, mean of group” value (shortened to “Somatic Cell Count of Quarter Milk”) in data set [11] (milking 1 (before treatments; infusions 30 mg/10 ml given after 4th, 5th, 6th milkings)) is 10 X1000; in data set [11] (milking 2 (before treatments)) it was 22 X1000; in data set [11] (milking 3 (before treatments)), 23 X1000; in data set [11] (milking 4 (before first treatment)) it was 21 X1000; in data set [11] (milking 5, infusions 30 mg/10 ml after 4th, 5th, 6th milkings), 54 X1000; in data set [11] (milking 6), 187 X1000. For the same substance, the “Somatic Cell Count of Quarter Milk” value is given as 300 X1000 in data set [11] (milking 7); 148 X1000 in data set [11] (milking 8); 106 X1000 in data set [11] (milking 9); 82 X1000 in data set [11] (milking 10); 103 X1000 in data set [11] (milking 11); 81 X1000 in data set [11] (milking 12). Moreover, the “Somatic Cell Count of Quarter Milk” value is 60 X1000 in [11] (milking 13); 36 X1000 in [11] (milking 14); 53 X1000 in data set [11] (milking 15); 37 X1000 in [11] (milking 16); 40 X1000 in data set [11] (milking 17); 41 X1000 in [11] (milking 18). Besides, the “antimicrobial activity compared with control, untreated nisin” value in data set [12] is “not substantially different”.
